B1: NVS0, the Fab version of brolucizumab (Fab, V domains shown)
VH: EVQLVESGGGLVQPGGSLRLSCTASGFSLTDYYYMTWVRQAPGKGLEWVGFIDPDDDPYYATWAKGRFTISRDNSKNTLYLQMNSLRAEDTAVYYCAGGDHNSGWGLDIWGQGTLVTVSS
VL: EIVMTQSPSTLSASVGDRVIITCQASEIIHSWLAWYQQKPGKAPKLLIYLASTLASGVPSRFSGSGSGAEFTLTISSLQPDDFATYYCQNVYLASTNGANFGQGTKLTVL
notes: as the Fab part of the heavy chain of Dm4 (LAVA1), without the GSGGG linker and the LINK domain; as the light chain of Dm4 (LAVA1); Made by converting the anti-VEGF scFv brolucizumab to a Fab format; also called untagged anti-VEGF Fab
B2: brolucizumab, an anti-VEGF scFv (scFv, V domains shown)
VH: B1 VH
VL: B1 VL
notes: NVS0 is the Fab version of this scFv
B3: LAVA2, protease-resistant variant of LAVA1 (Fab, V domains shown)
VH: B1 VH
VL: B1 VL
notes: as the Fab part of the heavy chain of Dm4 (LAVA1); linker; TSG6, human, LINK domain (HABP), with amino acid substitutions around the observed proteolytic sites; as the light chain of Dm4 (LAVA1); The substitutions are in Supplementary Data 2
B4: LAVA3, protease-resistant variant of LAVA1 (Fab, V domains shown)
VH: B1 VH
VL: B1 VL
notes: as for B3
B5: LAVA1 (NVS24): NVS0 Fab with the LINK domain of human TSG6 fused to the C terminus of the heavy chain (Fab, V domains shown)
VH: B1 VH
VL: B1 VL
notes: Fab heavy chain of NVS0 (from brolucizumab); linker; TSG6 (TNF-stimulated gene 6 protein), human, LINK domain; Fab light chain of NVS0 (from brolucizumab); The LINK domain has a natural N-linked glycosylation site
B6: LAVA46, variant of LAVA1 with an additional disulfide bond in the LINK domain (Fab, V domains shown)
VH: B1 VH
VL: B1 VL
notes: as the Fab part of the heavy chain of Dm4 (LAVA1); linker; TSG6, human, LINK domain (HABP), with cysteine residues introduced for an additional disulfide bond and substitutions at and around the observed digestion sites; as the light chain of Dm4 (LAVA1); The substitutions are in Supplementary Data 2
B7: LAVA25, non-glycosylated variant of LAVA1 (Fab, V domains shown)
VH: B1 VH
VL: B1 VL
notes: as the Fab part of the heavy chain of Dm4 (LAVA1); linker; TSG6, human, LINK domain (HABP), the N-linked glycosylation site deleted by substitution of the asparagine residue; as the light chain of Dm4 (LAVA1); The substitution is in Supplementary Data 2
B8: LAVA24, non-glycosylated variant of LAVA1 (Fab, V domains shown)
VH: B1 VH
VL: B1 VL
notes: as for B7
B9: LAVA45, variant of LAVA1 with an additional disulfide bond in the LINK domain (Fab, V domains shown)
VH: B1 VH
VL: B1 VL
notes: as for B6

One assay deals with T1, human VEGF-A165 (VEGF homodimer with each monomer having 165 amino acid residues) (Homo sapiens, UniProt P15692-4, strain, biotin (site not stated; named for Supplementary Table 2 only)).
T1 construct: also called hVEGF-A165; hVEGF; source: bought: Peprotech (catalogue number AF-100-20)
T1 sequence (P15692 whole entry, looked up, change not shown): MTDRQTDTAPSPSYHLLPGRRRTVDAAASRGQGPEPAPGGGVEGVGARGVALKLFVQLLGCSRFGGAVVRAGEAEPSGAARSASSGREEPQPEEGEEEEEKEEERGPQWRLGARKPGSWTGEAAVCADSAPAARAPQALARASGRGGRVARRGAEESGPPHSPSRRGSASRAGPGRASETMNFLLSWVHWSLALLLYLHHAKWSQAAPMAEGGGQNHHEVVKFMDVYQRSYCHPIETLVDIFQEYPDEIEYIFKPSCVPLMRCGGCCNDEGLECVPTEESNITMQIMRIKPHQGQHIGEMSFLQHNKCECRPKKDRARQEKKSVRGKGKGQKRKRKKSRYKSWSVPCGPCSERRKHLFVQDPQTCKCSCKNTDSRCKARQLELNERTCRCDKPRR
The assay can be described thus: inhibition of binding of hVEGF-A165 to hVEGFR2-Fc (luminescence read-out); antibody titrated (pM); binding signal in relative luminescence units; triplicates. The following applies: both partners purified.
B1: the 50% inhibitory concentration (IC50) (usually the concentration that inhibits the measured activity by half) was determined as 0.263 nM.

Consider B2, for which the half-inhibitory concentration (IC50) stood at 0.248 nM.

Consider B3, for which the IC50 turned out to be 0.207 nM.

Consider B4, for which the half-maximal inhibitory concentration (IC50) was 0.301 nM.

Take B5: the IC50 turned out to be 0.28 nM.

Another assay has as its target T1, human VEGF-A165 (VEGF homodimer with …). The assay can be described thus: SPR; Biacore as per the manufacturer's protocol; kinetic rate constants and affinity of the Fab constructs for biotinylated hVEGF-A165. As to conditions: both partners purified. Background: In SPR one partner is held on a chip, and binding of the other changes the refractive index at the surface.
On to B1, for which binding was characterised by a dissociation constant (Kd) of 0.0142 nM; the koff (usually the first-order rate constant of dissociation) came to 7.87e-05 s⁻¹; the kon (in general, a measure of how fast the partners come together) is 5.51e+06 M⁻¹ s⁻¹.

Regarding B6, the Kd (in general, the equilibrium constant for the complex coming apart) was 0.00413 nM; the koff was determined as 0.000257 s⁻¹; the kon worked out at 6.23e+07 M⁻¹ s⁻¹.

As to B3, the Kd stood at 0.00453 nM, the off-rate (koff) was 0.000185 s⁻¹ and the kon stood at 4.1e+07 M⁻¹ s⁻¹.

Take B4: the Kd is 0.000161 nM, the off-rate (koff) is 1.19e-05 s⁻¹ and the kon came to 7.39e+07 M⁻¹ s⁻¹.

B7 registered a Kd of 0.0115 nM, a koff of 0.000213 s⁻¹ and an on-rate (kon) of 1.86e+07 M⁻¹ s⁻¹.

For B8, binding was characterised by a dissociation constant (Kd) of 0.00882 nM, the koff amounted to 0.000198 s⁻¹ and the on-rate constant (kon) was determined as 2.25e+07 M⁻¹ s⁻¹.

For B5, the Kd was found to be 0.000176 nM, the koff is 1.01e-05 s⁻¹ and the kon turned out to be 5.75e+07 M⁻¹ s⁻¹.

B9 came in with a Kd of 0.00307 nM, a koff of 7.21e-05 s⁻¹ and an on-rate constant (kon) of 2.35e+07 M⁻¹ s⁻¹.
